From article PMC4887207, “Viral hijacking of a replicative helicase loader and its implications for helicase loading control and phage replication” (eLife, 2016)

Columns and labels:
[1] = biological target: SaDnaI^AAA+ (residues 136-306) (UniProt Q3ZUA6); test: competition-based fluorescence anisotropy assay; conditions: read at the highest unlabeled competitor concentration (last point, just beyond the 10 µM tick); the competitor displaces N-terminally labeled wild-type …; parent: est. 20; read off a plot
[2] = biological target: SaDnaI^AAA+ (residues 136-306) (Staphylococcus aureus) (UniProt Q3ZUA6); test: fluorescence polarisation; anisotropy-based competition; 20 nM labeled 77ORF104 and 2 µM SaDnaI^AAA+, unlabeled 77ORF104 or mutant titrated; 50 mM HEPES-KOH pH 7.5, 125 mM KCl, 10% glycerol, 5 mM MgCl2, 1 mM DTT; apparent
[3] = biological target: SeMet-SaDnaI^AAA+ (Staphylococcus aureus) (UniProt Q3ZUA6); test: crystal structure; ADP•BeF3-bound SaDnaI^AAA+•77ORF104 complex, SeMet SAD, 1.9 Å; complex formed with two-fold excess of 77ORF104
[4] = biological target: the molecule itself; test: centrifugal pelleting assay; 90 µM SaDnaI with or without 180 µM 77ORF104, 20 min on ice, 14,000 x g 1 min; 20 mM HEPES-KOH pH 7.5, 100 mM NaCl, 10% glycerol, 5 mM MgCl2, 6 mM ATP; SDS-PAGE of pellet and supernatant
[5] = biological target: the molecule itself; test: SEC; analytical gel filtration, 5/150 GL Superdex 200; 20 mM Tris-HCl pH 8.0, 200 mM NaCl, 5% glycerol, 5 mM MgCl2, 1 mM BME, 10 mM ATP; 7 µM SaDnaC, 14 µM SaDnaI, 14 µM 77ORF013, 30 µM 77ORF104; peak fractions on SDS-PAGE
[6] = biological target: N-terminally labeled, wild-type 77ORF104 (Staphylococcus bacteriophage 77); test: fluorescence polarisation; fluorescence anisotropy; 20 nM N-terminally AlexaFluor 488-labeled 77ORF104, unlabeled protein titrated in 2-fold steps; 50 mM HEPES-KOH pH 7.5, 125 mM KCl, 10% glycerol, 5 mM MgCl2, 1 mM DTT; single-site fit; apparent

For phage 77 ORF104 protein K39E, the response [1] was 26 mA.

Work on phage 77 ORF104 protein Y17E yielded a response [1] of 57 mA.

Work on “phage 77 ORF104 protein (natural protein)” yielded a Ki [2] of 1.62 µM.

Work on phage 77 ORF104 protein yielded a stoichiometry N [3] of 1.

B1: full-length Staphylococcus aureus DnaI (natural protein, UniProt Q3ZUA6 1-306, looked up)
chain: MKQFKSIINTSQDFEKRIEKIKKEVINDPDVKQFLEAHRAELTNAMIDEDLNVLQEYKDQQKHYDGHKFADCPNFVKGHVPELYVDNNRIKIRYLQCPCKIKYDEERFEAELITSHHMQRDTLNAKLKDIYMNHRDRLDVAMAADDICTAITNGEQVKGLYLYGPFGTGKSFILGAIANQLKSKKVRSTIIYLPEFIRTLKGGFKDGSFEKKLHRVREANILMLDDIGAEEVTPWVRDEVIGPLLHYRMVHELPTFFSSNFDYSELEHHLAMTRDGEEKTKAARIIERVKSLSTPYFLSGENFRNN
notes: Staphylococcus aureus helicase loader DnaI, residues 1-306 by the limits of the domain constructs; Residues 136-306 are in PDB 5HE8 and 5HE9; also called SaDnaI; FL SaDnaI; not shown: His6, N-terminal, cleaved; MBP, N-terminal, cleaved
B1: binds [4].

B2: SaDnaC replicative helicase (natural protein, Staphylococcus aureus, UniProt Q9AQH7 1-466, looked up)
chain: MDRMYEQNQMPHNNEAEQSVLGSIIIDPELINTTQEVLLPESFYRGAHQHIFRAMMHLNEDNKEIDVVTLMDQLSTEGTLNEAGGPQYLAELSTNVPTTRNVQYYTDIVSKHALKRRLIQTADSIANDGYNDELELDAILSDAERRILELSSSRESDGFKDIRDVLGQVYETAEELDQNSGQTPGIPTGYRDLDQMTAGFNRNDLIILAARPSVGKTAFALNIAQKVATHEDMYTVGIFSLEMGADQLATRMICSSGNVDSNRLRTGTMTEEDWSRFTIAVGKLSRTKIFIDDTPGIRINDLRSKCRRLKQEHGLDMIVIDYLQLIQGSGSRASDNRQQEVSEISRTLKALARELKCPVIALSQLSRGVEQRQDKRPMMSDIRESGSIEQDADIVAFLYRDDYYNRGGDEDDDDDGGFEPQTNDENGEIEIIIAKQRNGPTGTVKLHFMKQYNKFTDIDYAHADMM
notes: Staphylococcus aureus replicative helicase DnaC (a DnaB-family helicase); also called S. aureus DnaC replicative helicase; host helicase; not shown: His6, N-terminal, cleaved; MBP, N-terminal, cleaved
In the case of B2, the “stoichiometry N” value [5] is reported as 2.

B3: SaDnaI^AAA+ (residues 136-306) (domain or fragment)
chain: DRLDVAMAADDICTAITNGEQVKGLYLYGPFGTGKSFILGAIANQLKSKKVRSTIIYLPEFIRTLKGGFKDGSFEKKLHRVREANILMLDDIGAEEVTPWVRDEVIGPLLHYRMVHELPTFFSSNFDYSELEHHLAMTRDGEEKTKAARIIERVKSLSTPYFLSGENFRNN
B3 gave a Kd [6] of 0.049 µM.
